From patent US20250026827A1

Biological target: SIRPγ on Jurkat cells (human) (UniProt Q9P1W8)
Test: flow cytometry on Jurkat cells (endogenous SIRPγ), PE-conjugated antibody, fold over isotype (MFI)

Chain of SIRPγ on Jurkat cells (human) (Q9P1W8 29-387): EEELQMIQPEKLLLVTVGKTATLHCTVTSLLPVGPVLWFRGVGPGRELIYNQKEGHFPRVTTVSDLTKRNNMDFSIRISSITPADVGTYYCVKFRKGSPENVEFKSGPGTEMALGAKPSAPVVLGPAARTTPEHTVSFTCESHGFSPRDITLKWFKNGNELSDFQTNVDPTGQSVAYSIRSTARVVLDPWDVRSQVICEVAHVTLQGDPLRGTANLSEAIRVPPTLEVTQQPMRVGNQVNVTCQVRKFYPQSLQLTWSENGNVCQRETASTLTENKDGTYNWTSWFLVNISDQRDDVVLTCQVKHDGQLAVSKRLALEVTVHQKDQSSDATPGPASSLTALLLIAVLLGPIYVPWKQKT

- EC50 (read off the curve): 0.02 µM
Substance: PE SIRPy LSB2.20 (antibody)
